Laboratory results: PMC6588694

Molecular target: concanavalin A
Assay: SEC; Superdex 200 Increase 10/300 GL, 50 mM Tris, 150 mM NaCl, 100 mM glucose; molecular weight calibrated with a gel filtration calibration kit

stoichiometry N: 4
Substance: concanavalin A (natural protein)
